This is an account of results in patent US20180155451A1 (published 2018).

B1: GpH7-B3 variant K334_05P/GpL16-k0 (antibody, human IgG1, kappa)
heavy: not shown
light: DIVMTQSPLSLPVTPGEPASISCQASESLVHSNRNTYLHWYLQKPGQSPQLLIYKVSNRFSGVPDRFSGSGSGTDFTLKISRVEAEDVGVYYCSQNTHVPPTFGQGTKVEIERTVAAPSVFIFPPSDEQLKSGTASVVCLLNNFYPREAKVQWKVDNALQSGNSQESVTEQDSKDSTYSLSSTLTLSKADYEKHKVYACEVTHQGLSSPVTKSFNRGEC
notes: homodimerized IgG1, mutation in both H chains; also called Ho Ab
B2: GpH7-B3 variant K334_15Y/GpL16-k0 (antibody, human IgG1, kappa)
heavy: not shown
light: DIVMTQSPLSLPVTPGEPASISCQASESLVHSNRNTYLHWYLQKPGQSPQLLIYKVSNRFSGVPDRFSGSGSGTDFTLKISRVEAEDVGVYYCSQNTHVPPTFGQGTKVEIERTVAAPSVFIFPPSDEQLKSGTASVVCLLNNFYPREAKVQWKVDNALQSGNSQESVTEQDSKDSTYSLSSTLTLSKADYEKHKVYACEVTHQGLSSPVTKSFNRGEC
notes: as for B1
B3: GpH7-B3 variant Q295_02A/GpL16-k0 (antibody, human IgG1, kappa)
heavy: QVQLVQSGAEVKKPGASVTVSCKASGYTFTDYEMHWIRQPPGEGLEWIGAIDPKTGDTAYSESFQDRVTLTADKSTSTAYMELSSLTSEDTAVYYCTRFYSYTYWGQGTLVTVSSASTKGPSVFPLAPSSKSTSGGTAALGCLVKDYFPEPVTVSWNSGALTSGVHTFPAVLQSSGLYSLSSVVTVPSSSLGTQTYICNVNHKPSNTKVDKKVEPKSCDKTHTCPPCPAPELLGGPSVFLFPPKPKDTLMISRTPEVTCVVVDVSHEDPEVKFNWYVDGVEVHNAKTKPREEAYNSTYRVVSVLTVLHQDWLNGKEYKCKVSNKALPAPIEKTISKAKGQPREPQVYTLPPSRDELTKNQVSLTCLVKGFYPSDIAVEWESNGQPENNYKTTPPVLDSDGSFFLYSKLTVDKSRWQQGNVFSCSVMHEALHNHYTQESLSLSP
light: DIVMTQSPLSLPVTPGEPASISCQASESLVHSNRNTYLHWYLQKPGQSPQLLIYKVSNRFSGVPDRFSGSGSGTDFTLKISRVEAEDVGVYYCSQNTHVPPTFGQGTKVEIERTVAAPSVFIFPPSDEQLKSGTASVVCLLNNFYPREAKVQWKVDNALQSGNSQESVTEQDSKDSTYSLSSTLTLSKADYEKHKVYACEVTHQGLSSPVTKSFNRGEC
notes: as for B1
B4: GpH7-B3 variant K334_07I/GpL16-k0 (antibody, human IgG1, kappa)
heavy: not shown
light: DIVMTQSPLSLPVTPGEPASISCQASESLVHSNRNTYLHWYLQKPGQSPQLLIYKVSNRFSGVPDRFSGSGSGTDFTLKISRVEAEDVGVYYCSQNTHVPPTFGQGTKVEIERTVAAPSVFIFPPSDEQLKSGTASVVCLLNNFYPREAKVQWKVDNALQSGNSQESVTEQDSKDSTYSLSSTLTLSKADYEKHKVYACEVTHQGLSSPVTKSFNRGEC
notes: as for B1
B5: GpH7-B3 variant K334_18N/GpL16-k0 (antibody, human IgG1, kappa)
heavy: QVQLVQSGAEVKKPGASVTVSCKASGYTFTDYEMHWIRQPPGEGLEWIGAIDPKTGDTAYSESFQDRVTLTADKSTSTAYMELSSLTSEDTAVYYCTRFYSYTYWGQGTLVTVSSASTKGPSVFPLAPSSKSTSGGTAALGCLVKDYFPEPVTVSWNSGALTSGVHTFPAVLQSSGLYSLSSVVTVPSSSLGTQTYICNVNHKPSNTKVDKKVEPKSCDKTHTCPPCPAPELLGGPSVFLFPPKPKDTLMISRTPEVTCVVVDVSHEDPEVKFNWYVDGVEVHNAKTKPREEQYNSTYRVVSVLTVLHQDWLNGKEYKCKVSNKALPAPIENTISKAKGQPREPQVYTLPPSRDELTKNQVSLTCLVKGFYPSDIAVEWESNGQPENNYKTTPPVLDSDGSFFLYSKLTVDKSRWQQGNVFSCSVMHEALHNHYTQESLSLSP
light: DIVMTQSPLSLPVTPGEPASISCQASESLVHSNRNTYLHWYLQKPGQSPQLLIYKVSNRFSGVPDRFSGSGSGTDFTLKISRVEAEDVGVYYCSQNTHVPPTFGQGTKVEIERTVAAPSVFIFPPSDEQLKSGTASVVCLLNNFYPREAKVQWKVDNALQSGNSQESVTEQDSKDSTYSLSSTLTLSKADYEKHKVYACEVTHQGLSSPVTKSFNRGEC
notes: as for B1
B6: GpH7-B3 variant Q295_14T/GpL16-k0 (antibody, human IgG1, kappa)
heavy: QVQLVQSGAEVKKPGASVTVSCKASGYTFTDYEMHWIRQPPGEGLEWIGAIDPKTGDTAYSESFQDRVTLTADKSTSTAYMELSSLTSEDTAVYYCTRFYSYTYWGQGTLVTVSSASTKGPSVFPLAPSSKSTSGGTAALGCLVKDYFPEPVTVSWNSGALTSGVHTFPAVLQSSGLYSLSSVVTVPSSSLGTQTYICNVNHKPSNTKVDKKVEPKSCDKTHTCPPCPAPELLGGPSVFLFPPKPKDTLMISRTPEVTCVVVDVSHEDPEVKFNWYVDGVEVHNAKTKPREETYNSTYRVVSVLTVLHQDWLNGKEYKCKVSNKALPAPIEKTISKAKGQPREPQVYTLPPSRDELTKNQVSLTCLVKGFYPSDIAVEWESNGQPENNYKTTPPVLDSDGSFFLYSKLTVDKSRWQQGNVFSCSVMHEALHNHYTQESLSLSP
light: DIVMTQSPLSLPVTPGEPASISCQASESLVHSNRNTYLHWYLQKPGQSPQLLIYKVSNRFSGVPDRFSGSGSGTDFTLKISRVEAEDVGVYYCSQNTHVPPTFGQGTKVEIERTVAAPSVFIFPPSDEQLKSGTASVVCLLNNFYPREAKVQWKVDNALQSGNSQESVTEQDSKDSTYSLSSTLTLSKADYEKHKVYACEVTHQGLSSPVTKSFNRGEC
notes: as for B1
B7: GpH7-B3 variant S239_09D/GpL16-k0 (antibody, human IgG1, kappa)
heavy: not shown
light: DIVMTQSPLSLPVTPGEPASISCQASESLVHSNRNTYLHWYLQKPGQSPQLLIYKVSNRFSGVPDRFSGSGSGTDFTLKISRVEAEDVGVYYCSQNTHVPPTFGQGTKVEIERTVAAPSVFIFPPSDEQLKSGTASVVCLLNNFYPREAKVQWKVDNALQSGNSQESVTEQDSKDSTYSLSSTLTLSKADYEKHKVYACEVTHQGLSSPVTKSFNRGEC
notes: as for B1
B8: GpH7-B3 variant K334_16H/GpL16-k0 (antibody, human IgG1, kappa)
heavy: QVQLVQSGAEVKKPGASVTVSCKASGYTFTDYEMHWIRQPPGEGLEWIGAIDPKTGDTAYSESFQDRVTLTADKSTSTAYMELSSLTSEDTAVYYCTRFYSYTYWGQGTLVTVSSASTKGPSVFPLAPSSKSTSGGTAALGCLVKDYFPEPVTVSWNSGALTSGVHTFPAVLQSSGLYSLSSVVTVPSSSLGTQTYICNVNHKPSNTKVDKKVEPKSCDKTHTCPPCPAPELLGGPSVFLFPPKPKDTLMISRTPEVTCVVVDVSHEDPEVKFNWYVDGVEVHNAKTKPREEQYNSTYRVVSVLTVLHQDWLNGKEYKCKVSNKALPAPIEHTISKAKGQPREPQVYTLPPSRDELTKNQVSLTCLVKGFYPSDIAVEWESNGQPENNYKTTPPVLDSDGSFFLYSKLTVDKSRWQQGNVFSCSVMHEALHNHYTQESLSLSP
light: DIVMTQSPLSLPVTPGEPASISCQASESLVHSNRNTYLHWYLQKPGQSPQLLIYKVSNRFSGVPDRFSGSGSGTDFTLKISRVEAEDVGVYYCSQNTHVPPTFGQGTKVEIERTVAAPSVFIFPPSDEQLKSGTASVVCLLNNFYPREAKVQWKVDNALQSGNSQESVTEQDSKDSTYSLSSTLTLSKADYEKHKVYACEVTHQGLSSPVTKSFNRGEC
notes: as for B1
B9: GpH7-B3 variant K334_19Q/GpL16-k0 (antibody, human IgG1, kappa)
heavy: not shown
light: DIVMTQSPLSLPVTPGEPASISCQASESLVHSNRNTYLHWYLQKPGQSPQLLIYKVSNRFSGVPDRFSGSGSGTDFTLKISRVEAEDVGVYYCSQNTHVPPTFGQGTKVEIERTVAAPSVFIFPPSDEQLKSGTASVVCLLNNFYPREAKVQWKVDNALQSGNSQESVTEQDSKDSTYSLSSTLTLSKADYEKHKVYACEVTHQGLSSPVTKSFNRGEC
notes: as for B1
B10: GpH7-B3 variant S267_02A/GpL16-k0 (antibody, human IgG1, kappa)
heavy: not shown
light: DIVMTQSPLSLPVTPGEPASISCQASESLVHSNRNTYLHWYLQKPGQSPQLLIYKVSNRFSGVPDRFSGSGSGTDFTLKISRVEAEDVGVYYCSQNTHVPPTFGQGTKVEIERTVAAPSVFIFPPSDEQLKSGTASVVCLLNNFYPREAKVQWKVDNALQSGNSQESVTEQDSKDSTYSLSSTLTLSKADYEKHKVYACEVTHQGLSSPVTKSFNRGEC
notes: as for B1
B11: GpH7-B3 variant Q295_10E/GpL16-k0 (antibody, human IgG1, kappa)
heavy: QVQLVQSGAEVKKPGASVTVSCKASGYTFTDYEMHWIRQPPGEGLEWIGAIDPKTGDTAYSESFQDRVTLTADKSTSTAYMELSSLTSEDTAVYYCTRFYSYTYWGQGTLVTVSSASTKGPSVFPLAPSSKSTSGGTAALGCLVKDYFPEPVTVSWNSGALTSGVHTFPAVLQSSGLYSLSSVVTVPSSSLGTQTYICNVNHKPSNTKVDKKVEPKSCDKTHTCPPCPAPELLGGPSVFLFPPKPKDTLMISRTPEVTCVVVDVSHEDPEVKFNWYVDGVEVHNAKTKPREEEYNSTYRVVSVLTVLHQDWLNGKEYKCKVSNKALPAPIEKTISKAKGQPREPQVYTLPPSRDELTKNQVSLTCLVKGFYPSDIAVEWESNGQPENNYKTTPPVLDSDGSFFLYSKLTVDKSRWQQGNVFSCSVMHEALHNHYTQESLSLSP
light: DIVMTQSPLSLPVTPGEPASISCQASESLVHSNRNTYLHWYLQKPGQSPQLLIYKVSNRFSGVPDRFSGSGSGTDFTLKISRVEAEDVGVYYCSQNTHVPPTFGQGTKVEIERTVAAPSVFIFPPSDEQLKSGTASVVCLLNNFYPREAKVQWKVDNALQSGNSQESVTEQDSKDSTYSLSSTLTLSKADYEKHKVYACEVTHQGLSSPVTKSFNRGEC
notes: as for B1
B12: GpH7-B3 variant K334_09D/GpL16-k0 (antibody, human IgG1, kappa)
heavy: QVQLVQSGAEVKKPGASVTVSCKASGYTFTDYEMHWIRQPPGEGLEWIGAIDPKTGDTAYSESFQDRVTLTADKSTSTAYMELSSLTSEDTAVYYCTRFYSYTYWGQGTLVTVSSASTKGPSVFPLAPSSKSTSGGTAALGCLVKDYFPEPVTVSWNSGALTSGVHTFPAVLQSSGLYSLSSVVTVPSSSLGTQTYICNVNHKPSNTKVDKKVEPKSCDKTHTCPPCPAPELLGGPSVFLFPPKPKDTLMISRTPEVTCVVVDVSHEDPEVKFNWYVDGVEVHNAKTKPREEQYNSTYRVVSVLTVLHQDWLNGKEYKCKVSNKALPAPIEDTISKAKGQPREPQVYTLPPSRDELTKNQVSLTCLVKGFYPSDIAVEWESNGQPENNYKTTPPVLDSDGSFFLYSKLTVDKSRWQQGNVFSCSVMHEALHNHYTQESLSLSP
light: DIVMTQSPLSLPVTPGEPASISCQASESLVHSNRNTYLHWYLQKPGQSPQLLIYKVSNRFSGVPDRFSGSGSGTDFTLKISRVEAEDVGVYYCSQNTHVPPTFGQGTKVEIERTVAAPSVFIFPPSDEQLKSGTASVVCLLNNFYPREAKVQWKVDNALQSGNSQESVTEQDSKDSTYSLSSTLTLSKADYEKHKVYACEVTHQGLSSPVTKSFNRGEC
notes: as for B1
B13: GpH7-B3 variant K334_14T/GpL16-k0 (antibody, human IgG1, kappa)
heavy: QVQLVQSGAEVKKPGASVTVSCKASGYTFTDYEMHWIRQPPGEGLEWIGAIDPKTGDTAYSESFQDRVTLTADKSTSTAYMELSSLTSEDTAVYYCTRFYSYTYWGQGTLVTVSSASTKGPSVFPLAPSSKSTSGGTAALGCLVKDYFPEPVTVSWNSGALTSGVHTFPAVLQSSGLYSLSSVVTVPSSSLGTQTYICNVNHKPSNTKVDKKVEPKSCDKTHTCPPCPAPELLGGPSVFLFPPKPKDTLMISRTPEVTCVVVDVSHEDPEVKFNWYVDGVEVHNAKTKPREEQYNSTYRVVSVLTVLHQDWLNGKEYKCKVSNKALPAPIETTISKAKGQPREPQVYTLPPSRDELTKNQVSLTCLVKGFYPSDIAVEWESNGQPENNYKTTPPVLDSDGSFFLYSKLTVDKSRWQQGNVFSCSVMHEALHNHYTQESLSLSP
light: DIVMTQSPLSLPVTPGEPASISCQASESLVHSNRNTYLHWYLQKPGQSPQLLIYKVSNRFSGVPDRFSGSGSGTDFTLKISRVEAEDVGVYYCSQNTHVPPTFGQGTKVEIERTVAAPSVFIFPPSDEQLKSGTASVVCLLNNFYPREAKVQWKVDNALQSGNSQESVTEQDSKDSTYSLSSTLTLSKADYEKHKVYACEVTHQGLSSPVTKSFNRGEC
notes: as for B1
B14: GpH7-B3 variant K334_10E/GpL16-k0 (antibody, human IgG1, kappa)
heavy: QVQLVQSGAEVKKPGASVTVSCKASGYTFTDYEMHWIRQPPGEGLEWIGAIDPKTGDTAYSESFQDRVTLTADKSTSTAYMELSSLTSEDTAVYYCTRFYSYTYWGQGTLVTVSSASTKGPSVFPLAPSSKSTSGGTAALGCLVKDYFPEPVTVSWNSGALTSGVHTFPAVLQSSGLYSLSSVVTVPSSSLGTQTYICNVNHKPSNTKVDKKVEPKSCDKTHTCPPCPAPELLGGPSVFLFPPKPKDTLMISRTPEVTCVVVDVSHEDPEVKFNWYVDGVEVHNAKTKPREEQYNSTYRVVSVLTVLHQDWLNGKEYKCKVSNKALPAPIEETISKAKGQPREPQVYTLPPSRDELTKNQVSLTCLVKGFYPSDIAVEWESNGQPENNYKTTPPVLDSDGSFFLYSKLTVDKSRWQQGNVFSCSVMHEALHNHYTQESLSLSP
light: DIVMTQSPLSLPVTPGEPASISCQASESLVHSNRNTYLHWYLQKPGQSPQLLIYKVSNRFSGVPDRFSGSGSGTDFTLKISRVEAEDVGVYYCSQNTHVPPTFGQGTKVEIERTVAAPSVFIFPPSDEQLKSGTASVVCLLNNFYPREAKVQWKVDNALQSGNSQESVTEQDSKDSTYSLSSTLTLSKADYEKHKVYACEVTHQGLSSPVTKSFNRGEC
notes: as for B1
B15: GpH7-B3 variant K334_08L/GpL16-k0 (antibody, human IgG1, kappa)
heavy: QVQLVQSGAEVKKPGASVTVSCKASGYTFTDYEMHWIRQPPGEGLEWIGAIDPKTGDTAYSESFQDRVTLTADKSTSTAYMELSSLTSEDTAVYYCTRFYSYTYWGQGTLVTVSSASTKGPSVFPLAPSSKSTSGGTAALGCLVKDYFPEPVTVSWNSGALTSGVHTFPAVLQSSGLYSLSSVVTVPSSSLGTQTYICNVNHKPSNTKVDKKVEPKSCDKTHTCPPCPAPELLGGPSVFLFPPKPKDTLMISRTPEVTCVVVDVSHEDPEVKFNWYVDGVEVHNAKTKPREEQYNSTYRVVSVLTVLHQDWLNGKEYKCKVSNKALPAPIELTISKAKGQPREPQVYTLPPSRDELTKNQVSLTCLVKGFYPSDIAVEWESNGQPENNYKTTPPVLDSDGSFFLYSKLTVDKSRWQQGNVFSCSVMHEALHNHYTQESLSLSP
light: DIVMTQSPLSLPVTPGEPASISCQASESLVHSNRNTYLHWYLQKPGQSPQLLIYKVSNRFSGVPDRFSGSGSGTDFTLKISRVEAEDVGVYYCSQNTHVPPTFGQGTKVEIERTVAAPSVFIFPPSDEQLKSGTASVVCLLNNFYPREAKVQWKVDNALQSGNSQESVTEQDSKDSTYSLSSTLTLSKADYEKHKVYACEVTHQGLSSPVTKSFNRGEC
notes: as for B1
B16: GpH7-B3 variant K334_13S/GpL16-k0 (antibody, human IgG1, kappa)
heavy: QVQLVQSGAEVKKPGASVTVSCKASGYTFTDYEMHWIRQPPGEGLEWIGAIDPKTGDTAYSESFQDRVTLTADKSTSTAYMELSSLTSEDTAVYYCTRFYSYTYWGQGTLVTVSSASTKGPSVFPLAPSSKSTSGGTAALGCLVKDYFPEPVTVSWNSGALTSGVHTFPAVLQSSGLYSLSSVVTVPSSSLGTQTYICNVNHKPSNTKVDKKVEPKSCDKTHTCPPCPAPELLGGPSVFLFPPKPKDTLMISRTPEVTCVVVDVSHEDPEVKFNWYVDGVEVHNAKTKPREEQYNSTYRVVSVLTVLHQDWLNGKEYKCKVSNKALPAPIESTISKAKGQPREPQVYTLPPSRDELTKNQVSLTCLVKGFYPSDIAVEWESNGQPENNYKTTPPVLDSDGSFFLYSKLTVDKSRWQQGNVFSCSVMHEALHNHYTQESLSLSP
light: DIVMTQSPLSLPVTPGEPASISCQASESLVHSNRNTYLHWYLQKPGQSPQLLIYKVSNRFSGVPDRFSGSGSGTDFTLKISRVEAEDVGVYYCSQNTHVPPTFGQGTKVEIERTVAAPSVFIFPPSDEQLKSGTASVVCLLNNFYPREAKVQWKVDNALQSGNSQESVTEQDSKDSTYSLSSTLTLSKADYEKHKVYACEVTHQGLSSPVTKSFNRGEC
notes: as for B1

T1 sequence (P08637 17-208): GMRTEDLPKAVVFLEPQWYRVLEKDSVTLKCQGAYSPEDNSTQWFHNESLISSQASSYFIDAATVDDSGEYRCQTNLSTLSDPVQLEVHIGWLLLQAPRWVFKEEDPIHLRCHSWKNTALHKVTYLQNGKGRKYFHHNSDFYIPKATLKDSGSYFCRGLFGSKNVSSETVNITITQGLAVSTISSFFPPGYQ

The assay has as its target T1, FcγRIIIa extracellular domain with C-terminal His tag (human, UniProt P08637 17-208).
T1 construct: extracellular domain; also called FcgRIIIa; 3a
The assay is described as follows: SPR, relative to GpH7-B3/GpL16-k0.
Take B1: the Ho/Con_3a was 165 % of control (=100).

For B2, the Ho/Con_3a was 181 % of control (=100).

On to B3, for which the Ho/Con_3a was 108 % of control (=100).

B4: the Ho/Con_3a is 180 % of control (=100).

On to B5, for which the Ho/Con_3a was 156 % of control (=100).

As to B6, the Ho/Con_3a was 108 % of control (=100).

As to B7, the Ho/Con_3a was 192 % of control (=100).

For the molecule B8, the Ho/Con_3a is 153 % of control (=100).

In the case of B9, the Ho/Con_3a was 150 % of control (=100).

In the case of B10, the Ho/Con_3a is 145 % of control (=100).

Regarding B11, the Ho/Con_3a was 111 % of control (=100).

In the case of B12, the Ho/Con_3a is 150 % of control (=100).

As for B13, the Ho/Con_3a was 163 % of control (=100).

In the case of B14, the Ho/Con_3a was 206 % of control (=100).

Turning to B15, the Ho/Con_3a is 178 % of control (=100).

In the case of B16, the Ho/Con_3a was 153 % of control (=100).
